Laboratory results from patent US6514942B1, “Methods and compositions for stimulating T-lymphocytes” (The Board of Regents, The University of Texas System, priority 1995, dated 2003).

Assays:
[1] = target: T1, HLA-A2 on indicator T2 cells (Homo sapiens, UniProt P04439, D140Y/D185E/D98H/E176V/E277Q/G131W/G231S/I119V/I121R/I166T/I218V/L300P/L318F/N151K/N90K/P208A/P217A/Q86G/Q94H/R138H/R169H/T345S); test: Stabilization of HLA-A2 expression on indicator line T2; assay type: cell-based
T1 construct: cell surface expression of HLA-A2 is lower (30-40%) than in normal LBL lines transfected with HLA-A2; endogenous in cells; host or cells: T2 (transport deletion mutant) human lymphoblastoid cells, obtained from Dr. Peter Creswell
Excerpt: Since HER-2 is a self-antigen, during thymic selection, a number of T-cells carrying receptors with high affinity for the HLA-peptide complex are silenced either by elimination ro tolerization. A pre-condition for induction of a high affinity TCR-(MHC+peptide) interactions, is a stable (MHC+peptide) complex. […] However, stabilization of HLA-Class I binding by exogenously added peptide is dependent on introduction of dominant anchors in positions P2 and P9 which are not recognized by TCR.
Peptide D113, […] (SEQ ID NO:17), is the natural nonapeptide […].

C84 reactive CTL = test: Recognition by C84 reactive CTL; assay type: cell-based, human
Excerpt: The analogs with sequences C91=[…], (SEQ ID NO:4) and C92=[…] (SEQ ID NO:3) are also compositions of the present invention. In addition, substitutions at P4 (S→K) and P6 (F→V) affect residues that are expected to interact with TCR. […] Both C81 and C82 can form the core for antagonists of HER-2 reactive CTLs (to control and stop CTL reactions), and as such represent the first “universal” antagonists reported for stimulating CTLs.

For “ELVKEVSKV [Peptide C82, C85 analog with P4 (S→K) and P6 (F→V) substitutions]”, the HLA-A2 binding [1] was “binds HLA-A2” and the “recognition by C84 reactive CTL” value (C84 reactive CTL) was “no longer recognized by C84 reactive CTL”.
